How the values were obtained:
HLA-A*31:01 = assay: IEDB peptide-MHC binding, purified MHC/direct/fluorescence; filed as Kd, often an IC50 or EC50 that approximates it; ≥ and ≤ were set here for values at or beyond the usual limits of such assays
HLA-B*58:01 = assay: as above; settings: source organism: Escherichia coli O157:H7
HLA-B*46:01 = assay: as above
HLA-A*69:01 = assay: as above
HLA-B*15:01 [1] = assay: as above; settings: source organism: Escherichia coli
HLA-B*07:02 [2] = assay: as above; settings: source organism: Escherichia coli O157:H7
HLA-A*11:01 = assay: as above
HLA-A*01:01 = assay: as above
HLA-B*27:05 = assay: as above
HLA-B*40:01 = assay: as above
HLA-B*08:01 [3] = assay: as above
HLA-A*03:01 [4] = assay: as above
HLA-A*26:01 = assay: as above; settings: source organism: Escherichia coli O157:H7
HLA-B*44:02 = assay: as above
HLA-A*02:01 [5] = assay: as above; settings: source organism: Escherichia coli O157:H7
HLA-B*54:01 = assay: IEDB peptide-MHC binding, purified MHC/competitive/radioactivity; filed as Kd, often an IC50 or EC50 that approximates it; ≥ and ≤ were set here for values at or beyond the usual limits of such assays
HLA-B*07:02 [6] = assay: as above
HLA-B*35:01 = assay: as above
HLA-B*51:01 = assay: as above
HLA-B*53:01 = assay: as above
HLA-A*03:01 [7] = assay: IEDB peptide-MHC binding, purified MHC/competitive/fluorescence; filed as Kd, often an IC50 or EC50 that approximates it; ≥ and ≤ were set here for values at or beyond the usual limits of such assays; settings: source organism: Escherichia coli O157:H7 str. EDL933
HLA-A*02:17 = assay: IEDB peptide-MHC binding, purified MHC/competitive/radioactivity; filed as Kd, often an IC50 or EC50 that approximates it; ≥ and ≤ were set here for values at or beyond the usual limits of such assays
HLA-A*02:06 = assay: as above
HLA-A*02:01 [8] = assay: as above
HLA-A*02:03 = assay: as above
HLA-B*57:01 = assay: IEDB peptide-MHC binding, purified MHC/direct/fluorescence; filed as Kd, often an IC50 or EC50 that approximates it; ≥ and ≤ were set here for values at or beyond the usual limits of such assays; settings: source organism: Mycobacterium tuberculosis str. Haarlem
HLA-B*18:01 = assay: as above; settings: source organism: Mycobacterium tuberculosis str. Haarlem
HLA-A*68:02 = assay: IEDB peptide-MHC binding, purified MHC/competitive/radioactivity; filed as Kd, often an IC50 or EC50 that approximates it; ≥ and ≤ were set here for values at or beyond the usual limits of such assays; settings: source organism: Dengue virus 4 Philippines/H241/1956
HLA-B*15:01 [9] = assay: as above; settings: source organism: Dengue virus 1 Brazil/97-11/1997
HLA-B*08:01 [10] = assay: as above; settings: source organism: Dengue virus 1 Brazil/97-11/1997
[11] = source organism: Escherichia coli O157:H7
[12] = source organism: SARS coronavirus Tor2
[13] = source organism: Vaccinia virus WR
[14] = source organism: Mammarenavirus guanaritoense
[15] = source organism: Dengue virus 4 Philippines/H241/1956
[16] = source organism: Dengue virus 3 China/80-2/1980
[17] = source organism: Dengue virus 2 Puerto Rico/PR159-S1/1969
[18] = source organism: Mycobacterium tuberculosis str. Haarlem
[19] = source organism: Dengue virus 3 Martinique/1243/1999
[20] = source organism: Dengue virus 1 Singapore/S275/1990
[21] = source organism: Dengue virus 1 Brazil/97-11/1997

AQRPAKYSY
Kd (HLA-A*31:01; source organism: Escherichia coli): 622 nM | Kd (HLA-B*58:01): ≥ 20000 nM | Kd (HLA-B*46:01; [11]): ≥ 20000 nM | Kd (HLA-A*69:01; [11]): ≥ 20000 nM | Kd (HLA-B*15:01 [1]): 133 nM | Kd (HLA-B*07:02 [2]): ≥ 20000 nM | Kd (HLA-A*11:01; [11]): ≥ 20000 nM | Kd (HLA-A*01:01; [11]): ≥ 20000 nM | Kd (HLA-B*27:05; [11]): ≥ 20000 nM | Kd (HLA-B*40:01; [11]): ≥ 20000 nM | Kd (HLA-B*08:01 [3]; [11]): ≥ 20000 nM | Kd (HLA-A*03:01 [4]; [11]): ≥ 20000 nM | Kd (HLA-A*26:01): ≥ 20000 nM | Kd (HLA-B*44:02; [11]): ≥ 20000 nM | Kd (HLA-A*02:01 [5]): ≥ 20000 nM

SPLFLIVAAL
Kd (HLA-B*54:01; [12]): 949 nM | Kd (HLA-B*07:02 [6]; [12]): 248 nM | Kd (HLA-B*35:01; [12]): 3330 nM | Kd (HLA-B*51:01; [12]): 970 nM | Kd (HLA-B*53:01; [12]): 1040 nM

DPRLVAEHRF
Kd (HLA-B*54:01; [13]): ≥ 69900 nM | Kd (HLA-B*07:02 [6]; [13]): ≥ 21400 nM | Kd (HLA-B*35:01; [13]): 11700 nM | Kd (HLA-B*51:01; [13]): ≥ 69600 nM | Kd (HLA-B*53:01; [13]): 1210 nM

APNAKEEIL
Kd (HLA-B*54:01; [12]): ≥ 23300 nM | Kd (HLA-B*07:02 [6]; [12]): 71.2 nM | Kd (HLA-B*35:01; [12]): 19200 nM | Kd (HLA-B*51:01; [12]): 2650 nM | Kd (HLA-B*53:01; [12]): 18500 nM

NPLVITTSV
Kd (HLA-B*54:01; [14]): 79.8 nM | Kd (HLA-B*07:02 [6]; [14]): 1330 nM | Kd (HLA-B*35:01; [14]): 5530 nM | Kd (HLA-B*51:01; [14]): 381 nM | Kd (HLA-B*53:01; [14]): 14200 nM

KMARAGLGH
Kd (HLA-A*03:01 [7]): 25.1 nM

FLDLPLPWAA
Kd (HLA-A*02:17; [15]): 499 nM | Kd (HLA-A*02:06; [15]): 59.3 nM | Kd (HLA-A*02:01 [8]; [15]): 4.19 nM

YLEFEALGFL
Kd (HLA-A*02:17; [16]): 45.3 nM | Kd (HLA-A*02:01 [8]; [16]): 77.1 nM

TLYAVATTFI
Kd (HLA-A*02:17; [17]): 1300 nM | Kd (HLA-A*02:03; source organism: Dengue virus 2 Peru/IQT2913/1996): 13.7 nM | Kd (HLA-A*02:01 [8]; [17]): 86.3 nM

IMANRAQVL
Kd (HLA-B*57:01): ≥ 20000 nM | Kd (HLA-A*31:01; [18]): ≥ 20000 nM | Kd (HLA-B*46:01; [18]): ≥ 20000 nM | Kd (HLA-A*69:01; [18]): ≥ 20000 nM | Kd (HLA-B*18:01): ≥ 20000 nM | Kd (HLA-A*11:01; [18]): ≥ 20000 nM | Kd (HLA-A*01:01; [18]): ≥ 20000 nM | Kd (HLA-B*27:05; [18]): ≥ 20000 nM | Kd (HLA-B*40:01; [18]): ≥ 20000 nM | Kd (HLA-B*08:01 [3]; [18]): 332 nM | Kd (HLA-A*03:01 [4]; [18]): ≥ 20000 nM | Kd (HLA-B*44:02; [18]): ≥ 20000 nM

VMAVGLVSI
Kd (HLA-A*02:17; [16]): 3200 nM | Kd (HLA-A*02:03; [19]): 1.11 nM

KLTDWDFVV
Kd (HLA-A*02:17; [15]): 744 nM | Kd (HLA-A*02:06; [15]): 2.33 nM | Kd (HLA-A*02:01 [8]; source organism: dengue virus type 4): 61 nM

ILLKATLLAV
Kd (HLA-A*02:17; [20]): 318 nM | Kd (HLA-A*02:03; [21]): 2.21 nM | Kd (HLA-A*02:06; [21]): 18.1 nM | Kd (HLA-A*02:01 [8]; [20]): 2.24 nM

TSMAMTCIAV
Kd (HLA-A*68:02): 1.66 nM | Kd (HLA-A*02:17; [15]): 62.5 nM | Kd (HLA-A*02:06; [15]): 9.2 nM | Kd (HLA-A*02:01 [8]; [15]): 12.3 nM

LLMLVTPSM
Kd (HLA-B*15:01 [9]): 2.26 nM | Kd (HLA-A*02:17; [20]): 24.3 nM | Kd (HLA-B*08:01 [10]): 1080 nM | Kd (HLA-A*02:01 [8]; [20]): 7.86 nM

LLLLGLMILL
Kd (HLA-A*02:17; [16]): 94.9 nM | Kd (HLA-A*02:06; [19]): 21.5 nM | Kd (HLA-A*02:01 [8]; [16]): 11.7 nM
